Where “and” joins values, the source holds several entries; their conditions need not be identical. Identical values can stand only once. Like-named read-outs stand apart in the source and are kept apart here.
T1: Human BMP1 CD+CUB1 truncated antigen (human, UniProt P13497 121-434, limits assumed)
T1 construct: domain: CD+CUB1
T1 sequence (looked up): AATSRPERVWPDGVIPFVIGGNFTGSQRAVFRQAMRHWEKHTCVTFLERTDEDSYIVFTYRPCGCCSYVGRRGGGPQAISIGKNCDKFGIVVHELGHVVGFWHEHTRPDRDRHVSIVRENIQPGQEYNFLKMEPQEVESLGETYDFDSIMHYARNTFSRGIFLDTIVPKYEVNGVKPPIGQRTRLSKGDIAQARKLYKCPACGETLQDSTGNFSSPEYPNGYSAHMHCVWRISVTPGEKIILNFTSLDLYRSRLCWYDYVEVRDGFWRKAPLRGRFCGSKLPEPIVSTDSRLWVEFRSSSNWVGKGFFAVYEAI

T2: Cyno TLL1 (cyno, UniProt A0A1D5QYV0 148-1013 (rhesus entry))
T2 sequence: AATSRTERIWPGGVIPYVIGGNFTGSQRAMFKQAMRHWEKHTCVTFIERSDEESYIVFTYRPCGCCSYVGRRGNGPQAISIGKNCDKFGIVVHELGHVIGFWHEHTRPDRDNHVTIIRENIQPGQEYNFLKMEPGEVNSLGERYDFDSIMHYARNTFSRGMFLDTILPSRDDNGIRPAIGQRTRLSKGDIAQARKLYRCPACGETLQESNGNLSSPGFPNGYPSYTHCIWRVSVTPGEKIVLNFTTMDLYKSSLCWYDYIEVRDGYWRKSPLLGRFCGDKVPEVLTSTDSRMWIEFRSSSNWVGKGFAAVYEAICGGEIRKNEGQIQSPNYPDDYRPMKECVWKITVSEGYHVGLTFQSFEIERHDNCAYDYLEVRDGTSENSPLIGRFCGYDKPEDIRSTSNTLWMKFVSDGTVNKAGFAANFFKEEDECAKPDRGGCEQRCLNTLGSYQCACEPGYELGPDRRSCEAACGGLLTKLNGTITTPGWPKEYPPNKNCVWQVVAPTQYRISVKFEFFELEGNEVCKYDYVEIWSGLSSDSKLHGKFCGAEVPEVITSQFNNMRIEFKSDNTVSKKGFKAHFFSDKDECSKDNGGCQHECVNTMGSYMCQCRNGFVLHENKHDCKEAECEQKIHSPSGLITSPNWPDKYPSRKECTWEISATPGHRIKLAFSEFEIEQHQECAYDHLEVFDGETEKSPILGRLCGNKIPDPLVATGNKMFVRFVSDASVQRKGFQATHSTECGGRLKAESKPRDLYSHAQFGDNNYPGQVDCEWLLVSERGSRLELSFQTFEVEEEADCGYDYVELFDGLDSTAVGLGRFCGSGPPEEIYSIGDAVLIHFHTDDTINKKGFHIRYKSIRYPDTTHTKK

T3: Mouse TLL1 (mouse, UniProt Q62381 148-1013, limits assumed)
T3 sequence (looked up): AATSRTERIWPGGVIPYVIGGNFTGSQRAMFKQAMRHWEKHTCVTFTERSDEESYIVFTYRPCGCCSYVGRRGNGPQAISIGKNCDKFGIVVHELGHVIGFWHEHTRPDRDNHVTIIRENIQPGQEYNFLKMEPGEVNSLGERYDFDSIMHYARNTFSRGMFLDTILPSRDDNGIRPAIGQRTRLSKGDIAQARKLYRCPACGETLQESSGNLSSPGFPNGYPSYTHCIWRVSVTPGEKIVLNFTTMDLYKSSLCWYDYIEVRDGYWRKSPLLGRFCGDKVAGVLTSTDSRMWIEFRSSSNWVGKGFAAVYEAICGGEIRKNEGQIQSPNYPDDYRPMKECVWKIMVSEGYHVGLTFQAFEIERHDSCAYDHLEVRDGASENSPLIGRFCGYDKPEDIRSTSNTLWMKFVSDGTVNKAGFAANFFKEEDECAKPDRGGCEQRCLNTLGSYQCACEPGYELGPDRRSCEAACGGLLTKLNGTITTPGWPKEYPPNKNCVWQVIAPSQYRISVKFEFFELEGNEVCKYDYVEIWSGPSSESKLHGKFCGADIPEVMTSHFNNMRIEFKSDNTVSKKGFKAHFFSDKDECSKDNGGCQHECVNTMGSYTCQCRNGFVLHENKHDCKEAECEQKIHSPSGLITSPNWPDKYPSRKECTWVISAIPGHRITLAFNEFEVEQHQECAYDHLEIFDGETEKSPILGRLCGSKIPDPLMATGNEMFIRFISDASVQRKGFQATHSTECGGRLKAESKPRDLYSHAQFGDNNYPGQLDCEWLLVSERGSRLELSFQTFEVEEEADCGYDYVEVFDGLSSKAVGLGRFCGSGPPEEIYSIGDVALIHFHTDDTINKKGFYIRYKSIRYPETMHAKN

T4: Human BMP1-1 (human, UniProt P13497-2 121-730, limits assumed)
T4 sequence (looked up): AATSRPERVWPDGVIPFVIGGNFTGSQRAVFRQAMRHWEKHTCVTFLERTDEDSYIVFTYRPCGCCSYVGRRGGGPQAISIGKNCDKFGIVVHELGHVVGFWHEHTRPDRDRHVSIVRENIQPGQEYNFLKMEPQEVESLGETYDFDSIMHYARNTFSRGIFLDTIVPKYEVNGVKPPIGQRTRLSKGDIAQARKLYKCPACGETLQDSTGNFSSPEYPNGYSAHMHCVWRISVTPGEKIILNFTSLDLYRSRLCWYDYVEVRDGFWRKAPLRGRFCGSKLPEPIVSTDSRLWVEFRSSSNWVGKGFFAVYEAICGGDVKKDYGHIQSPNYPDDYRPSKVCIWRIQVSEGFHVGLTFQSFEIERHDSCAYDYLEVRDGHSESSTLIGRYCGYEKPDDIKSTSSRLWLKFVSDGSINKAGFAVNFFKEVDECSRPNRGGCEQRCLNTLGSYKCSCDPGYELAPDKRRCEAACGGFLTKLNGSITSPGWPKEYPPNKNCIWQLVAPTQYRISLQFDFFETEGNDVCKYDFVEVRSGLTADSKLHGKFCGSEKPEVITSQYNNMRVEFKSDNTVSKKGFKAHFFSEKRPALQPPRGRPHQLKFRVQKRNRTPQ

T5: Mouse BMP1-3: 126-707 (mouse, UniProt P98063 126-707)
T5 sequence (looked up): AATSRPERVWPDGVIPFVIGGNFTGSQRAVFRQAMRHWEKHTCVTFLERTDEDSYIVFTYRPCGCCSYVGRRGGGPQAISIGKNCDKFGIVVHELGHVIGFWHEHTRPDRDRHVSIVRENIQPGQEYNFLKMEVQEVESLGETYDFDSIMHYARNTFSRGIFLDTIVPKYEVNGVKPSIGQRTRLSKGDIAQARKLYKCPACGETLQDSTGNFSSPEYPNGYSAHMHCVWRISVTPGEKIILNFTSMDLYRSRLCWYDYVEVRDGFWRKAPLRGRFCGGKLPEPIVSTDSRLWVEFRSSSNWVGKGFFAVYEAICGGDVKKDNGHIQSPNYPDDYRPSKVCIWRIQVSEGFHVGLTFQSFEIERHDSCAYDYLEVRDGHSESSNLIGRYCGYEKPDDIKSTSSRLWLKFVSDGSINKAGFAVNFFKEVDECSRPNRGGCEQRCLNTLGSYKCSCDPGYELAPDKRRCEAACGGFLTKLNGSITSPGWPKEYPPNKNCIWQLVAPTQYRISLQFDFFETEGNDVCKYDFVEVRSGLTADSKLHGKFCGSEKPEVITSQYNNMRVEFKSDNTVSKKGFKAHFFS

T6: Human TLL2 CD+CUB1 truncated antigen (human, UniProt Q9Y6L7 150-463, limits assumed)
T6 construct: domain: CD+CUB1
T6 sequence (looked up): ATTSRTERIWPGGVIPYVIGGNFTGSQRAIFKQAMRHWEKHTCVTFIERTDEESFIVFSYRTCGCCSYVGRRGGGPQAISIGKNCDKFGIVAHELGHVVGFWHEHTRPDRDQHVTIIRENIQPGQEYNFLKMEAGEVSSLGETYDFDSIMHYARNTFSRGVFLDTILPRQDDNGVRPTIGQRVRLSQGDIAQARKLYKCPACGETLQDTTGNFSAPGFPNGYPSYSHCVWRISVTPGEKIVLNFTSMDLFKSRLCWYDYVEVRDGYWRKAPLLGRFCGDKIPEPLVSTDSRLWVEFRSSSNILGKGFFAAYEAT

T7: Mouse BMP1 CD+CUB1 truncated antigen (mouse, UniProt P98063 126-439, limits assumed)
T7 construct: domain: CD+CUB1
T7 sequence (looked up): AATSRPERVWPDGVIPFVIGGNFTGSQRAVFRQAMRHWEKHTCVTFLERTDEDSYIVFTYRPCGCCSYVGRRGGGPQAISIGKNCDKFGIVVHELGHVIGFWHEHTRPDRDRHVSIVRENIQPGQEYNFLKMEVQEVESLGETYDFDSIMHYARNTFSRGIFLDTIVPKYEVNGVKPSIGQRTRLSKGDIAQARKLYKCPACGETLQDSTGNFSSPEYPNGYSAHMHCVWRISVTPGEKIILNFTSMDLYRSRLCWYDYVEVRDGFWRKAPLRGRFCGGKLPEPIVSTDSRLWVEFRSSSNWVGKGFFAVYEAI


Assays:
[1] = target: T1, Human BMP1 CD+CUB1 truncated antigen; test: SPR, mAb captured on protein A, HBS-EP
Experimental: The 16 lead panel antibodies expressed in HEK cells were evaluated for binding to a truncated version of human BMP containing the catalytic domain and truncated domain (Human BMP1 CD+CUB1 truncated antigen) by SPR using BIACORE T200. HBS-EP+ buffer was used and the experiment run at 25° C. Protein A was immobilised to a CM5 sensor chip via amine coupling. The lead panel antibodies were captured onto protein A surface. Human BMP1 CD+CUB1 was then passed over the captured antibodies at various concentrations.

Cyno TLL1 = target: T2, Cyno TLL1; test: cell-based or functional assay
Mouse TLL1 = target: T3, Mouse TLL1; test: cell-based or functional assay
Human BMP1-1 [2] = target: T4, Human BMP1-1; test: cell-based or functional assay
Mouse BMP1-3: 126-707 [3] = target: T5, Mouse BMP1-3: 126-707; test: cell-based or functional assay
Human BMP1-1 [4] = target: T4, Human BMP1-1; test: cell-based or functional assay; remark: listed apart in the source
[5] = target: T1, Human BMP1 CD+CUB1 truncated antigen; test: SPR, captured mAb, HBS-EP
[6] = target: T1, Human BMP1 CD+CUB1 truncated antigen; test: SPR, captured mAb, enzyme dilution buffer
[7] = target: T6, Human TLL2 CD+CUB1 truncated antigen; test: SPR, captured mAb, HBS-EP
Experimental: (§1) Both antibodies 13Y039-4B06-4334 and 13Y039-3E07-2944 and the reverse chimeric antibodies were evaluated for binding to human TLL2 CD+CUB1 and mouse BMP1 CD+CUB1 truncated antigens by SPR on a BIACORE T200. Protein A/G was immobilised to a CM5 sensor chip via amine coupling and the antibodies were captured to the protein A/G surface. The antigens were passed over the captured antibody at various concentrations. The measured affinities to human TLL2 CD+CUB1 are shown in Table 2 and the measured affinities to mouse BMP1 CD+CUB1 are shown in Table 3.

[8] = target: T7, Mouse BMP1 CD+CUB1 truncated antigen; test: SPR, captured mAb, HBS-EP
Experimental: as §1

Mouse BMP1-3: 126-707 [9] = target: T5, Mouse BMP1-3: 126-707; test: cell-based or functional assay; remark: listed apart in the source
Human BMP1-1 [10] = target: T4, Human BMP1-1; test: cell-based or functional assay; remark: listed apart in the source
[11] = target: T6, Human TLL2 CD+CUB1 truncated antigen; test: SPR, captured mAb, HBS-EP; remark: listed apart in the source
Experimental: as §1

Row | Kd [1] [nM] | IC50, FRET enzyme activity, 750 pM biotinylated cynoTLL-1 (Cyno TLL1) [pM] | IC50, FRET enzyme activity, 800 pM biotinylated mTLL-1 (Mouse TLL1) [nM] | IC50, FRET enzyme activity, 62.5 pM huBMP1 (Human BMP1-1 [2]) [pM] | IC50 (read off the curve) (Mouse BMP1-3: 126-707 [3]) [nM] | IC50 (read off the curve) (Human BMP1-1 [4]) [nM] | Kd [5] [nM] | Kd [6] [nM] | Kd [7] [nM] | Kd [8] | pKi, app, FRET enzyme activity, Mouse BMP1 (Mouse BMP1-3: 126-707 [9]) | pKi, app, FRET enzyme activity, Human BMP1 (Human BMP1-1 [10]) | Kd [11] [nM] | Binder
1 | 1.6 | 20 | 0.56 | 60 | ~0.06 | ~0.5 | – | – | – | – | – | – | – | 13Y039-8F02-2949 (antibody, human IgG1, kappa, V domains shown, Fully human IgG1 LAGA, kappa; HEK expressed) VH: QVQLVQSGAEVKKPGSSVKVSCKASGGTFSEWAISWVRQAPGQGLEWMGAIIPKFGTAEYAQKFQGRVTITADESTSTAYMELSSLRSEDTAVYYCARGAKYYYAEDYMDVWGKGTTVTVSS VL: DIQMTQSPSSVSASVGDRVTITCRASQGISSWLAWYQQKPGKAPKLLIYAASSLQSGVPSRFSGSGSGTDFTLTISSLQPEDFATYYCQQALSLPYTFGGGTKVEIKR
2 | – | – | – | – | – | – | 2.33 | 0.04 | 3.55 | 0.82 nM and 1.98 nM | 11.4 | 12.3 | 3.54 | 13Y039-4B06-4334 human variable region on mouse IgG2a LAGA Fc, mouse cKappa (Compound A) (antibody, Reverse chimera; the printed variable regions are those of 4B06-4334; also called 13Y039-4B06-4334 reverse chimera mouse IgG2a LAGA; 13Y039-4B06-4334, mIgG2a LAGA) heavy: QVQLVQSGAEVKKPGASVKVSCKASGYTFLGYYMSWVRQAPGQGLEWMGWINPLSGETNYAQKFQGRVTMTRDTSISTAYMELSRLRSDDTAVYYCARDTGELDGMNWYFDLWGRGTLVTVSSAKTTAPSVYPLAPVCGDTTGSSVTLGCLVKGYFPEPVTLTWNSGSLSSGVHTFPAVLQSDLYTLSSSVTVTSSTWPSQSITCNVAHPASSTKVDKKIEPRGPTIKPCPPCKCPAPNLAGAPSVFIFPPKIKDVLMISLSPIVTCVVVDVSEDDPDVQISWFVNNVEVHTAQTQTHREDYNSTLRVVSALPIQHQDWMSGKEFKCKVNNKDLPAPIERTISKPKGSVRAPQVYVLPPPEEEMTKKQVTLTCMVTDFMPEDIYVEWTNNGKTELNYKNTEPVLDSDGSYFMYSKLRVEKKNWVERNSYSCSVVHEGLHNHHTTKSFSRTPGK light: EIVLTQSPATLSLSPGERATLSCRASQSVSSYLAWYQQKPGQAPRLLIYDASNRATGIPARFSGSGSGTDFTLTISSLEPEDFAVYYCQQSDSWPPTFGGGTKVEIKRADAAPTVSIFPPSSEQLTSGGASVVCFLNNFYPKDINVKWKIDGSERQNGVLNSWTDQDSKDSTYSMSSTLTLTKDEYERHNSYTCEATHKTSTSPIVKSFNRNEC

Reference: patent publication US20230279089A1 (GlaxoSmithKline, published 2023)
